± gives the standard deviation of the averaged measurements.
Test: total protein half-life in vivo (active degradation + dilution); higher = more stable protein
[1] = E. coli NCM3722 delta-clpP delta-lon delta-hslV, growth: N-lim chemostat, doubling time 6 h
[2] = E. coli NCM3722 delta-hslV, growth: N-lim chemostat, doubling time 6 h
[3] = E. coli NCM3722 delta-lon, growth: N-lim chemostat, doubling time 6 h
[4] = E. coli NCM3722 delta-smpB, growth: N-lim chemostat, doubling time 6 h
[5] = wild type E. coli NCM3722, growth: C-lim chemostat, doubling time 3 h
[6] = wild type E. coli NCM3722, growth: C-lim chemostat, doubling time 6 h
[7] = wild type E. coli NCM3722, growth: C-lim chemostat, doubling time 12 h
[8] = wild type E. coli NCM3722, growth: N-lim chemostat, doubling time 6 h
[9] = wild type E. coli NCM3722, growth: N-lim chemostat, doubling time 12 h
[10] = wild type E. coli NCM3722, growth: P-lim chemostat, doubling time 6 h
[11] = wild type E. coli NCM3722, growth: P-lim chemostat, doubling time 12 h
[12] = E. coli NCM3722 delta-clpP, growth: N-lim chemostat, doubling time 6 h

Sequence | total protein half-life in vivo [1] | total protein half-life in vivo [2] | total protein half-life in vivo [3] | total protein half-life in vivo [4] | total protein half-life in vivo [5] | total protein half-life in vivo [6] | total protein half-life in vivo [7] | total protein half-life in vivo [8] | total protein half-life in vivo [9] | total protein half-life in vivo [10] | total protein half-life in vivo [11] | total protein half-life in vivo [12]
MRRFLTTLMILLVVLVAGLSALVLLVNPNDFRDYMVKQVAARSGYQLQLDGPLRWHVWPQLSILSGRMSLTAQGASQPLVRADNMRLDVALLPLLSHQLSVKQVMLKGAVIQLTPQTEAVRSEDAPVAPRDNTLPDLSDDRGWSFDISSLKVADSVLVFQHEDDEQVTIRNIRLQMEQDPQHRGSFEFSGRVNRDQRDLTISLNGTVDASDYPHDLTAAIEQINWQLQGADLPKQGIQGQGSFQAQWQESHKRLSFNQISLTANDSTLSGQAQVTLTEKPEWQLRLQFPQLNLDNLIPLNETANGENGAAQQGQSQSTLPRPVISSRIDEPAYQGLQGFTADILLQASNVRWRGMNFTDVATQMTNKSGLLEITQLQGKLNGGQVSLPGTLDATSINPRINFQPRLENVEIGTILKAFNYPISLTGKMSLAGDFSGADIDADAFRHNWQGQAHVEMTDTRMEGMNFQQMIQQAVERNGGDVKAAENFDNVTRLDRFTTDLTLKDGVVTLNDMQGQSPVLALTGEGMLNLADQTCDTQFDIRVVGGWNGESKLIDFLKETPVPLRVYGNWQQLNYSLQVDQLLRKHLQDEAKRRLNDWAERNKDSRNGKDVKKLLEKM | 6.52 ± 0.57 h | 6.45 ± 0.47 h | 6.24 ± 0.085 h | 6.43 ± 0.59 h | 3.54 ± 0.42 h | 6.18 ± 0.13 h | 11.4 ± 0.47 h | 6.231 ± 0.012 h | 13 ± 0.012 h | 6.266 ± 0.044 h | 11.5 ± 0.13 h | –
MTTRLTRWLTTLDNFEAKMAQLPAVRRYGRLTRATGLVLEATGLQLPLGATCVIERQNGSETHEVESEVVGFNGQRLFLMPLEEVEGVLPGARVYAKNISAEGLQSGKQLPLGPALLGRVLDGSGKPLDGLPSPDTTETGALITPPFNPLQRTPIEHVLDTGVRPINALLTVGRGQRMGLFAGSGVGKSVLLGMMARYTRADVIVVGLIGERGREVKDFIENILGAEGRARSVVIAAPADVSPLLRMQGAAYATRIAEDFRDRGQHVLLIMDSLTRYAMAQREIALAIGEPPATKGYPPSVFAKLPALVERAGNGISGGGSITAFYTVLTEGDDQQDPIADSARAILDGHIVLSRRLAEAGHYPAIDIEASISRAMTALISEQHYARVRTFKQLLSSFQRNRDLVSVGAYAKGSDPMLDKAIALWPQLEGYLQQGIFERADWEASLQGLERIFPTVS | 3.91 h | – | – | – | 2.04 ± 0.092 h | 3.72 h | 4.73 ± 0.2 h | – | – | – | – | –
MSQVSTEFIPTRIAILTVSNRRGEEDDTSGHYLRDSAQEAGHHVVDKAIVKENRYAIRAQVSAWIASDDVQVVLITGGTGLTEGDQAPEALLPLFDREVEGFGEVFRMLSFEEIGTSTLQSRAVAGVANKTLIFAMPGSTKACRTAWENIIAPQLDARTRPCNFHPHLKK [P0AEZ9] | 5.88 ± 0.086 h | 5.23 ± 0.43 h | 5.076 ± 0.019 h | 4.7 ± 0.21 h | 3.17 ± 0.28 h | 5.99 ± 0.53 h | 10.3 ± 1.4 h | 4.7 ± 0.53 h | 8.21 ± 0.61 h | 6.07 ± 0.18 h | 13.4 ± 0.48 h | 5.83 ± 0.34 h
MVKLPPLSLYIHIPWCVQKCPYCDFNSHALKGEVPHDDYVQHLLNDLDNDVAYAQGREVKTIFIGGGTPSLLSGPAMQTLLDGVRARLPLAADAEITMEANPGTVEADRFVDYQRAGVNRISIGVQSFSEEKLKRLGRIHGPQEAKRAAKLASGLGLRSFNLDLMHGLPDQSLEEALGDLRQAIELNPPHLSWYQLTIEPNTLFGSRPPVLPDDDALWDIFEQGHQLLTAAGYQQYETSAYAKPGYQCQHNLNYWRFGDYIGIGCGAHGKVTFPDGRILRTTKTRHPRGFMQGRYLESQRDVEATDKPFEFFMNRFRLLEAAPRVEFIAYTGLCEDVIRPQLDEAIAQGYLTECADYWQITEHGKLFLNSLLELFLAE | 4.14 ± 1.6 h | 4.32 ± 0.36 h | 4.24 ± 0.52 h | 3.734 ± 0.022 h | 3.01 ± 0.05 h | 4.82 ± 0.96 h | 8.1 ± 1.6 h | 4.03 ± 0.08 h | 6.81 ± 0.47 h | 5.41 ± 0.25 h | 10.4 ± 0.86 h | 5.76 ± 2.5 h
MEFLMDPSIWAGLLTLVVLEIVLGIDNLVFIAILADKLPPKQRDKARLLGLSLALIMRLGLLSLISWMVTLTKPLFTVMDFSFSGRDLIMLFGGIFLLFKATTELHERLENRDHDSGHGKGYASFWVVVTQIVILDAVFSLDAVITAVGMVNHLPVMMAAVVIAMAVMLLASKPLTRFVNQHPTVVVLCLSFLLMIGLSLVAEGFGFHIPKGYLYAAIGFSIIIEVFNQIARRNFIRHQSTLPLRARTADAILRLMGGKRQANVQHDADNPMPMPIPEGAFAEEERYMINGVLTLASRSLRGIMTPRGEISWVDANLGVDEIREQLLSSPHSLFPVCRGELDEIIGIVRAKELLVALEEGVDVAAIASASPAIIVPETLDPINLLGVLRRARGSFVIVTNEFGVVQGLVTPLDVLEAIAGEFPDADETPEIITDGDGWLVKGGTDLHALQQALDVEHLADDDDIATVAGLVISANGHIPRVGDVIDVGPLHITIIEANDYRVDLVRIVKEQPAHDEDE [P0AEC0] | 6.99 ± 0.2 h | 6.46 ± 0.09 h | 6.27 ± 0.49 h | 5.4 ± 0.28 h | – | 5.88 ± 0.19 h | 12.3 ± 0.92 h | 6.71 ± 0.84 h | 14.2 ± 0.73 h | 6.06 ± 0.7 h | 12.2 ± 1.3 h | 6.691 ± 0.015 h
MRLNPGQQQAVEFVTGPCLVLAGAGSGKTRVITNKIAHLIRGCGYQARHIAAVTFTNKAAREMKERVGQTLGRKEARGLMISTFHTLGLDIIKREYAALGMKANFSLFDDTDQLALLKELTEGLIEDDKVLLQQLISTISNWKNDLKTPSQAAASAIGERDRIFAHCYGLYDAHLKACNVLDFDDLILLPTLLLQRNEEVRKRWQNKIRYLLVDEYQDTNTSQYELVKLLVGSRARFTVVGDDDQSIYSWRGARPQNLVLLSQDFPALKVIKLEQNYRSSGRILKAANILIANNPHVFEKRLFSELGYGAELKVLSANNEEHEAERVTGELIAHHFVNKTQYKDYAILYRGNHQSRVFEKFLMQNRIPYKISGGTSFFSRPEIKDLLAYLRVLTNPDDDSAFLRIVNTPKREIGPATLKKLGEWAMTRNKSMFTASFDMGLSQTLSGRGYEALTRFTHWLAEIQRLAEREPIAAVRDLIHGMDYESWLYETSPSPKAAEMRMKNVNQLFSWMTEMLEGSELDEPMTLTQVVTRFTLRDMMERGESEEELDQVQLMTLHASKGLEFPYVYMVGMEEGFLPHQSSIDEDNIDEERRLAYVGITRAQKELTFTLCKERRQYGELVRPEPSRFLLELPQDDLIWEQERKVVSAEERMQKGQSHLANLKAMMAAKRGK | 4.75 ± 0.66 h | 3.26 ± 0.39 h | 3.59 ± 0.24 h | 2.97 ± 0.12 h | 2.89 ± 0.43 h | 4.89 ± 0.71 h | 6.36 ± 0.89 h | 3.27 ± 0.52 h | 4.74 ± 0.2 h | 5.75 ± 0.71 h | 8.39 ± 0.72 h | 3.564 ± 0.03 h
MSKSRLTVFSFVRRFLLRLMVVLAVFWGGGIALFSVAPVPFSAVMVERQVSAWLHGNFRYVAHSDWVSMDQISPWMGLAVIAAEDQKFPEHWGFDVASIEKALAHNERNENRIRGASTISQQTAKNLFLWDGRSWVRKGLEAGLTLGIETVWSKKRILTVYLNIAEFGDGVFGVEAAAQRYFHKPASKLTRSEAALLAAVLPNPLRFKVSSPSGYVRSRQAWILRQMYQLGGEPFMQQHQLD | 7.03 h | 6.04 ± 0.026 h | – | 5.87 ± 0.34 h | 3.16 h | – | 10.8 ± 1.2 h | 6.11 ± 0.23 h | 12.3 ± 1.5 h | 6.23 ± 0.25 h | 12.8 ± 0.19 h | 6.44 ± 0.48 h

Reference: the supplement of paper PMC11246515
